Experimental data taken from patent publication US20210139917.

B1: peptide cyclization enzyme from Goodfellowiella coeruleoviolacea NBRC 14988 (protein)
chain: VPNEQDLGSLLARLAERHRVPGAQLSVCHDSASVTVVTGRERHGAATPVTARSAFPLGSLTKPFTAALAMVLVADGDLDLDEPVAGYHPGVTLRRLLSHTAGLESNVDEQAAAGVPRRRWVTRYPARLAPEHPPGTVFSYSNVGYLLAGHLVEEVTGLDWAEAVESVLLRPLGITPAFVVGAAGSRGVVCGHVLTDDRVLPVAEQVMPEVEAPNGALALSSADLLAFAALFSANSPAPDVLDPATAALMCQDQLADVRVGPYGMADGWGLGWARYRGAGADWFGHDGTGDGTSCHLRFDPERGTAVALTTNGSTGAALWRELCAELAERHVLPPEWGREPGEATPVAGPPDGAGHYANGPAEFVVTRQDDDGLALVLDGAQAVPLTCLPDLRFQLRLGTTVLSGRFLRDPDTGGIDHIQVTGRLARRRQVTG
B2: peptide cyclization enzyme from Streptomyces noursei NBRC 15452 (protein)
chain: VHGDSADPAGYGAGDGSPLDLDLDRLARDCDVAGGQLAVHHHGVLETWEFGEEEPGAGRPVHSATAFPYGSTTKVCTATSVLQLVGDGDLDLDRPVREWLPEAGTVPEARRDHPALAATLRQLLSHTAGLPSDHDDADASSLRRWLTGFLAAPADARPAPGTFSYSNVGYGIAGRVVESVTGLPWYEAVRDYLLRPLGTAITALPAEPGSLPAGGLAGSAADLVRLGLLHIAEPGRPDLADPAALGEATRPTAGADPFGLADGWGPGLGHFGPAEDRWLGHDGTLDGATCHLRIHPRRGTVIALTTNSPTGQALWDAVVGALRDAGIDVGVYRPAPPPSLAQGGAPAGAAAFADCTGTYRNGDLAVTVGLDGPHLVLELPGGARELAEPLARRTFAARGAGAFLGRFAVDARTGAVHALQYSGRTLLRDTGRAHGARPH
B3: recombinant SurE protein (peptide cyclization enzyme derived from Streptomyces albidoflavus NBRC 12854) (protein)
chain: VGAEGAERDAVGALFEELVREHRVTGAQLSVYRDGALSEYATGLASVRTGEPVTPRTGFPFGSVTKFLTAELVMQFVCDGDLDLDDPLAGLLPDLGRAAGPPLGTATVRQLLSHTAGVVDSIEYDEMRGPSYRRFAAACARQPALFPPGLAFSYSNTGYCLLGAVIEAASGMDWWTAMDSCLLRPLGIEPAFLHDPRPGQGGAARPVAEGHALRAGGERAEHVDHMASLSLAAAGGLVGSATDLVTAARPHLADRKTFAQHDLLPEDAVLAMRTCVPDAEPFGLADGWGLGLMRHGTGDGAWYGHDGAVGGASCNLRIHPDRSLALALTANSTAGPKLWEALVARLPEAGLDVGHYALPVPDSAPLAPDAGHLGTYANGDLELMVTHDAAGDLFLTRESYSDYRLSLHEDDLFVARSGEPGALPITGRFVREHPAGPVALLQYGGRAMHRL

How the values were obtained:
[1] = target: SB(L8F)-SNAC, peptide in which D-Leu at the C-terminus of SB-SNAC is substituted with D-Phe
[2] = target: substrate peptide 3 (SB-SNAC), SNAC body indicated with 3 in FIG. 2a
[3] = target: SB(L8A)-SNAC, peptide in which D-Leu at the C-terminus of SB-SNAC is substituted with D-Ala
[4] = target: substrate peptide (SNAC body) shown in FIG. 4
[5] = target: methyl ester of the compound indicated with 3 in FIG. 2a
[6] = target: shorter peptide (7 amino acid residues, SNAC body)
[7] = target: substrate in which Ile at the N-terminus of the compound indicated in 3 of FIG. 2a is substituted with L-Trp
[8] = target: longer peptide (11 amino acid residues, SNAC body)

| Protein | peptide cyclization reaction, HPLC [1] | peptide cyclization reaction, HPLC [2] | peptide cyclization reaction, HPLC [3] | peptide cyclization reaction, HPLC and mass spectrometry (extracted ion chromatogram) [4] | peptide cyclization reaction [5] | peptide cyclization reaction (data not shown) [6] | kcat/KM of the cyclization reaction relative to substrate 3 of FIG. 2a [1] | kcat/KM of the cyclization reaction relative to substrate 3 of FIG. 2a [7] | peptide cyclization reaction (data not shown) [8] | peptide cyclization reaction, HPLC analysis of the product [2] |
| --- | --- | --- | --- | --- | --- | --- | --- | --- | --- | --- |
| B1 | the two enzymes produced cyclized peptides from three substrates | the two enzymes produced cyclized peptides from three substrates | the two enzymes produced cyclized peptides from three substrates |  |  |  |  |  |  |  |
| B2 | the two enzymes produced cyclized peptides from three substrates | the two enzymes produced cyclized peptides from three substrates | the two enzymes produced cyclized peptides from three substrates |  |  |  |  |  |  |  |
| B3 |  |  |  | a product having a molecular weight corresponding to the molecular weight (m/z 1038.8) of a cyclized product of Surugamide F (cyclic Surugamide F) was detected | even when the methyl ester was used as a substrate, the same cyclized product as in the case of using the SNAC body was produced | a cyclized product was observed to be obtained by the recombinant SurE | two to five times higher than the kcat/KM value obtained when the compound indicated with 3 in FIG. 2a was used as a substrate | two to five times higher than the kcat/KM value obtained when the compound indicated with 3 in FIG. 2a was used as a substrate | a cyclized product was observed to be obtained by the recombinant SurE | cyclized the substrate peptide to give a cyclized peptide 1 (Surugamide B) as a single product |
